The record followed here is paper doi:10.1101/2020.03.16.993006 (bioRxiv, 2020).

A word on the Kd: it is the free concentration of one partner at which half of the binding sites on the other are occupied at equilibrium, for simple one-to-one binding. A high value points to a looser complex.

Test [1] addresses human ferroportin (FPN), wild type, reconstituted in lipid nanodisc (human, UniProt Q9NP59). Description: cryo-EM structure.
The target in test [2] is Rhodamine green-hepcidin (human). Description: fluorescence polarisation.
For test [3] the target is unchanged. The test is described as follows: fluorescence polarisation. This is another data set of the same source. A general note: Fluorescence polarisation rises when a labelled molecule tumbles more slowly, as on binding a larger partner.
Test [4] shares this target. The test is described as follows: fluorescence polarisation. The source holds these as a separate data set.
Test [5] has the same target. The test is described as follows: fluorescence polarisation. The source holds these as a separate data set.

Where two headings read alike, the source gives them in different places.

B1: Fab45D8 (Fab, V domains shown)
VH: EVQLQESGPGLAKPSQTLSLTCSVTGSSITSDYWNWIRKFPGNKLEYMGYISYSGSTYYNPSLKSQISITRDTSKNHYYLQLNSVTTEDTATYYCARQGLRNWYFDVWGTGTTVTVSS
VL: DIVLTQSPASLPVSLGQRATISCRASKSVSASAYSYMHWYQQKPGQPPKPLIYLASNLESGVPARFSGSGSGTDFTLNIHPVEEEDAATYYCQHNRELPYTFGGGTKLEIK
In the case of B1, the binding result in test [1] is listed as “binds”.

B2: human ferroportin (FPN), wild type, reconstituted in lipid nanodisc (natural protein)
chain: MTRAGDHNRQRGCCGSLADYLTSAKFLLYLGHSLSTWGDRMWHFAVSVFLVELYGNSLLLTAVYGLVVAGSVLVLGAIIGDWVDKNARLKVAQTSLVVQNVSVILCGIILMMVFLHKHELLTMYHGWVLTSCYILIITIANIANLASTATAITIQRDWIVVVAGEDRSKLANMNATIRRIDQLTNILAPMAVGQIMTFGSPVIGCGFISGWNLVSMCVEYVLLWKVYQKTPALAVKAGLKEEETELKQLNLHKDTEPKPLEGTHLMGVKDSNIHELEHEQEPTCASQMAEPFRTFRDGWVSYYNQPVFLAGMGLAFLYMTVLGFDCITTGYAYTQGLSGSILSILMGASAITGIMGTVAFTWLRRKCGLVRTGLISGLAQLSCLILCVISVFMPGSPLDLSVSPFEDIRSRFIQGESITPTKIPEITTEIYMSNGSNSANIVPETSPESVPIISVSLLFAGVIAARIGLWSFDLTVTQLLQENVIESERGIINGVQNSMNYLLDLLHFIMVILAPNPEAFGLLVLISVSFVAMGHIMYFRFAQNTLGNKLFACGPDAKEVRKENQANTSVV
On to B2, for which the Kd amounted to 210 nM in test [2], 2.5 nM in test [3], 7.8 nM in test [4] and 7.7 nM in test [5].
